According to patent US12715909 (ENTHERA S R L, dated 2026):
Numbering of substitutions follows the chain as printed. Blank lines part the entries; values can stand above or below the binder they belong to.

Experiments:
Test in all cases: ELISA, scFv, secondary screening
[1] = target: T1, human IGFBP5 (human, UniProt P24593 21-272)
T1 construct: Bought protein; in BLI it was in solution; also called hIGFBP-5
Procedure: (§1) At the end of the discovery process, each selection output was screened for antigen-specific antibodies and the binding characteristics of monoclonal antibody clones was analysed. For this purpose, 3072 single colonies were used for scFv antibody production. […] 192 of those ELISA positive clones were selected for a secondary screening. For that purpose, a second batch of scFv were produced and tested on a broader panel of antigens: Streptavidin+biotinylated human IGFBP5, Streptavidin+biotinylated murine IGFBP5, Streptavidin, BSA, Human IGFBP1, Human IGFBP2, Human IGFBP3, Human IGFBP4, Human IGFBP5 and Human IGFBP6. […] Binding to human IGFBP1, human IGFBP2, human IGFBP3, human IGFBP4 and human IGFBP6 was not detected. […] The scFv DNA sequence was amplified by PCR and cloned into YUMAB's mammalian scFv-Fc expression vector, resulting in a genetic fusion of the scFv with a human IgG4 Fc. Bacterial clones with a correctly cloned scFv gene were used for isolation of transfection grade DNA. The DNA was used for the transient transfection of HEK cells which produced and secreted the antibody into the culture medium. The antibodies were purified by affinity chromatography (Protein A) and re-buffered in PBS. The protein concentration was determined by UV/VIS spectrometry and purity was checked by Coomassie staining. 13 of the 15 antibodies could be successfully produced in the scFv-Fc format.

[2] = target: T2, mouse IGFBP5 (mouse, UniProt Q07079 20-271)
T2 construct: Bought protein; in solution in BLI; also called mIGFBP-5; murine IGFBP5
T2 sequence (Q07079 20-271 limits assumed): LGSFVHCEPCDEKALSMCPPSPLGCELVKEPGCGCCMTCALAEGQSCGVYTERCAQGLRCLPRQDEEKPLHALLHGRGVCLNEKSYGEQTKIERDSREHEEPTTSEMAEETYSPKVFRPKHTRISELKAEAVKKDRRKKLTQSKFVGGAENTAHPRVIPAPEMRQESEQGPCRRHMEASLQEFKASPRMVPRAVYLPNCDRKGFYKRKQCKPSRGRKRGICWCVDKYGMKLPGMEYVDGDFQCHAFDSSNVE
Procedure: as §1

[3] = target: T3, human IGFBP1 (human, UniProt P08833 26-259)
T3 construct: Bought protein
T3 sequence (looked up): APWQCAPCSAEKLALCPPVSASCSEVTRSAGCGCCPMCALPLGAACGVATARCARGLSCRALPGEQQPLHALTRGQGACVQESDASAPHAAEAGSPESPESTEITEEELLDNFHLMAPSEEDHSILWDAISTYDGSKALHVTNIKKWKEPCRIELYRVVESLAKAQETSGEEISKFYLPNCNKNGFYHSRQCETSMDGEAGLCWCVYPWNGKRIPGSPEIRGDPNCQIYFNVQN
Procedure: as §1

[4] = target: T4, human IGFBP2 (human, UniProt P18065 37-325, limits assumed)
T4 construct: Bought protein
T4 sequence (looked up): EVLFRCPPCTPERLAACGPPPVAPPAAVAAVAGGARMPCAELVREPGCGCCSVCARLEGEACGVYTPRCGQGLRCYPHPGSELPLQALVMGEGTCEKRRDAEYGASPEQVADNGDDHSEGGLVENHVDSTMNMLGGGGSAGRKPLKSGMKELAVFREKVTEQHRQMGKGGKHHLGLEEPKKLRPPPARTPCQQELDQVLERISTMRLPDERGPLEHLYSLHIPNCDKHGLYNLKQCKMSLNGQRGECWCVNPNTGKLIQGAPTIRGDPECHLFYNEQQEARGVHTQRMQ
Procedure: as §1

[5] = target: T5, human IGFBP3 (human, UniProt P17936 28-291)
T5 construct: Bought protein
T5 sequence (P17936 28-291 limits assumed): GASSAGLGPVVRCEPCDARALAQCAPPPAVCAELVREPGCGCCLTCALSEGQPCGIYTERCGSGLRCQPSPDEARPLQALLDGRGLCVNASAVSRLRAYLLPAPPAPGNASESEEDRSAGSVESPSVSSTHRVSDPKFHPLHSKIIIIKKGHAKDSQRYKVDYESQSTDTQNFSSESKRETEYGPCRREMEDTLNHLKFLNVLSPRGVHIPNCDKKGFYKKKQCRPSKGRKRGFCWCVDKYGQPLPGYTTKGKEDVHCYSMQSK
Procedure: as §1

[6] = target: T6, human IGFBP4 (human, UniProt P22692 22-258)
T6 construct: Bought protein
T6 sequence (looked up): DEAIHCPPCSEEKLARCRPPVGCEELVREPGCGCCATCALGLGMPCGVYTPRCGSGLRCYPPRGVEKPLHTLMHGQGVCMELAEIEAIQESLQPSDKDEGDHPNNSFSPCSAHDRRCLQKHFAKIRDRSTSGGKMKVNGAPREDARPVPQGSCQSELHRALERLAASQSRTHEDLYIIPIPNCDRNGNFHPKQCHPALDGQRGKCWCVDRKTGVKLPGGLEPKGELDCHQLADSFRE
Procedure: as §1

[7] = target: T7, human IGFBP6 (human, UniProt P24592 28-240, limits assumed)
T7 construct: Bought protein
T7 sequence (looked up): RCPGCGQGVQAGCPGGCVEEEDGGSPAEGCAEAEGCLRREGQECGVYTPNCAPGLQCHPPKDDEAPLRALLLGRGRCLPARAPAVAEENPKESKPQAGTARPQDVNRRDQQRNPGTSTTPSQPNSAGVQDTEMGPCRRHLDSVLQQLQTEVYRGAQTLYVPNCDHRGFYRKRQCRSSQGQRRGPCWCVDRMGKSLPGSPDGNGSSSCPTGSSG
Procedure: as §1

T1 sequence (P24593 21-272 limits assumed): as the sequence (Q07079 20-271 limits assumed) above, with G87R, T90V, V116I, V157I, P159S, F183L, A245T counted along it

B1: C12 scFv (scFv, V domains shown)
VH: QVQLVQSGAEVKKPGSSVKVSCKASGGTFSSYAISWVRQAPGQGLEWMGGIIPIFGTANYAQKFQGRVTITADESTSTAYMELSSLRSEDTAVYYCATLGRELSFDYWGQGTLVTVSS
VL: DIVMTQSPSSLSASVGDRVTITCRASQSISSYLNWYQQKPGKAPKLLIYAASSLQSGVPSRFSGSGSGTDFTLTISSLQPEDFATYYCQQSYSESWTFGQGTTVDIK
notes: scFv as screened by ELISA
- binding result [1]: binds
- binding result [2]: binds
- binding result [3]: no binding
- binding result [4]: no binding
- binding result [5]: no binding
- binding result [6]: no binding
- binding result [7]: no binding

B2: E02 scFv (scFv, V domains shown)
VH: QMQLVQSGAEVKKPGSSVKVSCKASGGTFSSYAISWVRQAPGQGLEWMGGIIPIFGTANYAQKFQGRVTITADESTSTAYMELSSLRSEDTAVYYCATMSVAGPSISFDYWGQGTLVTVSS
VL: B1 VL with V3Q, T20A, T22P, S56R, Q90E, S91T, E94N, S95L, T103K, D105E
notes: scFv as screened by ELISA
- binding result [1]: binds
- binding result [2]: binds
- binding result [3]: no binding
- binding result [4]: no binding
- binding result [5]: no binding
- binding result [6]: no binding
- binding result [7]: no binding

B3: D12 scFv (scFv, V domains shown)
VH: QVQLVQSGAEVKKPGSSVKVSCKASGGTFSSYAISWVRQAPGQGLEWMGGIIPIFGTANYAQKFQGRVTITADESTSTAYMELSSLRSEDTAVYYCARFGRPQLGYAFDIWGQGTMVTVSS
VL: ETTLTQSPGTLSVSPGDRATLSCRASQSLSADYLAWYQQKPGQAPRLLIYGASTRATGIPARFSGSGSGTEFTLTVSSLQSEDFAVYYCQQNDNWPYTFGQGTKLEIK
notes: scFv as screened by ELISA
- binding result [1]: binds
- binding result [2]: binds
- binding result [3]: no binding
- binding result [4]: no binding
- binding result [5]: no binding
- binding result [6]: no binding
- binding result [7]: no binding

B4: E05 scFv (scFv, V domains shown)
VH: EVQLVESGGGLVQPGGSLKLSCAASGFTFSGYGMNWVRQAPGKGLEWVSYVGSSSSTIYYADSVKGRFTISRDNANNSLYLQMNSLRAEDTAVYYCARGLGGNWGQGTMVTVSS
VL: QPGLTQPPSASGAPGQRVTISCSGSRSNIGSNYVHWYQQLPGTAPKLIIYRNDQRPSGVPARFSASKSGTSASLAISGLRSEDEADYYCAAWDDGLSVLFGGGTKLTVL
notes: scFv as screened by ELISA
- binding result [1]: binds
- binding result [2]: binds
- binding result [3]: no binding
- binding result [4]: no binding
- binding result [5]: no binding
- binding result [6]: no binding
- binding result [7]: no binding

B6: C02 scFv (scFv, V domains shown)
VH: QVQLVQSGAEVKKPGASVKVSCKASGYTFTSYGISWVRQAPGQGLEWMGWISAYNGNTNYAQKLQGRVTMTTDTSTSTAYMELRSLRSDDTAVYYCARGRGVIDYWGQGTLVTVSS
VL: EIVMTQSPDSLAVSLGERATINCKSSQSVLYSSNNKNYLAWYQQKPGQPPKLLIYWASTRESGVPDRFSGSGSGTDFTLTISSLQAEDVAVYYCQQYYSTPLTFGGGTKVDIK
notes: scFv as screened by ELISA
- binding result [1]: binds
- binding result [2]: binds
- binding result [3]: no binding
- binding result [4]: no binding
- binding result [5]: no binding
- binding result [6]: no binding
- binding result [7]: no binding

Further lines, results first:

- binding result [3]: no binding
- binding result [4]: no binding
- binding result [5]: no binding
- binding result [6]: no binding
- binding result [7]: no binding
B5: B09 scFv (scFv, V domains shown)
VH: QVQLVQSGAEVKKPGASVKVSCKASGYTFTSYGISWVRQAPGQGLEWMGWISAYNGNTNYAQKLQGRVTMTTDTSTSTAYMELRSLRSDDTAVYYCARDLAVGTHGDYWGQGTLVTVSS
VL: QSALTQPASVSGSPGQSITISCTGTSSDVGGYNYVSWYQQHPGKAPKLMIYEVSNRPSGVSNRFSGSKSGNTASLTISGLQAEDEADYYCSSYTSSSTLEVVFGGGTKLTVL
notes: scFv as screened by ELISA

- binding result [1]: binds
- binding result [2]: binds
- binding result [3]: no binding
- binding result [4]: no binding
- binding result [5]: no binding
- binding result [6]: no binding
- binding result [7]: no binding
B7: F05 scFv (scFv, V domains shown)
VH: B6 VH with V102S, I103F, Y105P
VL: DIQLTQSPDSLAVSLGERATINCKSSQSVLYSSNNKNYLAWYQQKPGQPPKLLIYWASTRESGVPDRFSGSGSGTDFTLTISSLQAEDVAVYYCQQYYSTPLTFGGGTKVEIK
notes: scFv as screened by ELISA

- binding result [1]: binds
- binding result [2]: binds
- binding result [3]: no binding
- binding result [4]: no binding
- binding result [5]: no binding
- binding result [6]: no binding
- binding result [7]: no binding
B8: C11 scFv (scFv, V domains shown)
VH: EVQLVESGGGVVQPGRSLRLSCAASGFTFSSYGMHWVRQAPGKGLEWVAVISYDGSNKYYADSVKGRFTISRDNSKNTLYLQMNSLRAEDTAVYYCARGDYSDTSGTDFFQHWGQGTQVTVSS
VL: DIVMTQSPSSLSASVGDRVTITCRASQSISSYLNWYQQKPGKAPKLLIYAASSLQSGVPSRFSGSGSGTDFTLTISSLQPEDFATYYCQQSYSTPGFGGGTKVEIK
notes: scFv as screened by ELISA

- binding result [1]: binds
- binding result [2]: binds
- binding result [3]: no binding
- binding result [4]: no binding
- binding result [5]: no binding
- binding result [6]: no binding
- binding result [7]: no binding
B9: D10 scFv (scFv, V domains shown)
VH: QVQLVQSGAEVKKPGASVKVSCKASGYTFTSYGISWVRQAPGQGLEWMGWISAYNGNTNYAQKLQGRVTMTTDTSTSTAYMELRSLRSDDTAVYYCARDRYLGWFDPWGQGTLVTVSS
VL: QSALTQPASVSGSPGQSITISCTGTSSDVGGYNYVSWYQQHPGKAPKLMIYEVSNRPSGVSNRFSGSKSGNTASLTISGLQAEDEADYYCSSYTSSSTPYVFGTGTKLTVL
notes: scFv as screened by ELISA

- binding result [1]: binds
- binding result [2]: binds
- binding result [3]: no binding
- binding result [4]: no binding
- binding result [5]: no binding
- binding result [6]: no binding
- binding result [7]: no binding
B10: E03 scFv (scFv, V domains shown)
VH: QVQLVQSGAEVKKPGSSVKVSCKASGGTFSSYAISWVRQAPGQGLEWMGGITPIFGTANYAQKFQGRVTITADESTSTAYMELSSLRSEDTAVYYCARAGILTGYYFDYWGQGTLVTVSS
VL: NFMLTQPHSVSESPGKTVTISCTRSSGSIASNYVQWYQQRPGSSPTTVIYEDNQRPSGVPDRFSGSIDSSSNSASLTISGLKTEDEADYYCQSYDSSNRPWVFGGGTKLTVL
notes: scFv as screened by ELISA

- binding result [1]: binds
- binding result [2]: binds
- binding result [3]: no binding
- binding result [4]: no binding
- binding result [5]: no binding
- binding result [6]: no binding
- binding result [7]: no binding
B11: F04 scFv (scFv, V domains shown)
VH: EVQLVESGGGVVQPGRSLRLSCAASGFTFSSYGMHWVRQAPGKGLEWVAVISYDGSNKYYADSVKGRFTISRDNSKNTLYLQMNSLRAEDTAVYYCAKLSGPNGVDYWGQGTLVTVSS
VL: SSELTQDPSVSVALGQTVTITCQGDSVRKYYTNWYQQKPGQAPILVLYGKNYRPSGIPDRFSGSTSGDTAYLTITGAQAEDAADYYCHSRDTSDIHLNVFGTGTKVTVL
notes: scFv as screened by ELISA

- binding result [1]: binds
- binding result [2]: binds
- binding result [3]: no binding
- binding result [4]: no binding
- binding result [5]: no binding
- binding result [6]: no binding
- binding result [7]: no binding
B12: B11 scFv (scFv, V domains shown)
VH: QVQLVQSGAEVKKPGSSVKVSCKASGGTFSSYAISWVRQAPGQGLEWMGGIIPIFGTANYAQKFQGRVTITADKSTSTAYMELSSLRSEDTAVYYCARNVRLPGWFDPWGQGTLVTVSS
VL: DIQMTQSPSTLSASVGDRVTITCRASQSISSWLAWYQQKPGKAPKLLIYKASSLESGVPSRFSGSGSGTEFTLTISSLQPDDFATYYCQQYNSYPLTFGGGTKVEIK
